Publication PMC3929782

Molecular target: Cy-5-labelled H2A/H2B dimer, wild type (UniProt P02281)
Assay: fluorescence polarisation

**Q.** With “RNF168 RING domain (residues 1–189) (from UniProt Q8IYW5 1-189) (domain or fragment)” as the substance, how does the Kd read?
**A.** 1 µM
